We go through three substances from patent publication US20230303681A1.

This assay concerns the target mouse TMEM106B (mouse) (UniProt Q80X71). The experiment in a line: FACS Neuro2a.

Turning to Negative ctrl #1 (antibody), the MFI was determined as 220.

Negative ctrl #2 (antibody): the MFI worked out at 235.

As to Negative ctrl #3 (antibody), the MFI came out at 216.
